According to patent EP4725969A1 (Latticon (Suzhou) Biopharmaceuticals Co., Ltd., dated 2024):
Where a chain is given by its changes, count along the chain named. Read-outs that look alike come from different tables or passages of the source. Values belong to the binder of their own block, whether it stands above or below them.

Legend:
[1] = target: T1, recombinant human HER2 extracellular domain protein (human, UniProt P04626 23-652); assay: BLI, Protein A capture
T1 construct: range 23-652; Range is printed for the immunogen/panning protein; also called ErbB2; recombinant HER2 protein

[2] = target: T1, recombinant human HER2 extracellular …; assay: BLI, Protein A capture; remark: listed apart in the source

B6: Hu2117HK-Mu07 (Fc fusion, name in Kabat numbering)
scFv: EVQLVESGGGLVQPGGSLRLSCAASGFTYSSYGMSWVRQAPGKGLEWVASISGGGSYTYYPDSVKGRFTISRDNSKNTLYLQMNSLRAEDTAVYYCARDYAGFFDVWGQGTLVTVSSGGGGSGGGGSGGGGSDIQMTQSPSSLSASVGDRVTITCRSSQSLVHSNGNTYLHWYQQKPGKAPKLLIYKVSNRFSGVPSRFSGSGSGTDFTLTISSLQPEDFATYFCSQSTHVPYTFGQGTKVEIK
notes: scFv-hIgG1 Fc; not shown: human IgG1 Fc
Kd [1]: 11.7 nM
koff [1]: 0.000465 s⁻¹
kon [1]: 39800 M⁻¹ s⁻¹

B12: Hu2117HK-Mu36 (Fc fusion, name in Kabat numbering)
scFv: B6 scFv with Y59K, S226M
notes: as for B6
Kd [1]: 31.4 nM
koff [1]: 0.00198 s⁻¹
kon [1]: 63200 M⁻¹ s⁻¹

B17: Hu2117HK-Mu20 (Fc fusion, name in Kabat numbering)
scFv: B6 scFv with Y59K, N165S
notes: as for B6
Kd [1]: 13.3 nM
koff [1]: 0.000616 s⁻¹
kon [1]: 46500 M⁻¹ s⁻¹

B18: Hu2117HK-Mu35 (Fc fusion, name in Kabat numbering)
scFv: B6 scFv with Y59K, S226L
notes: as for B6
Kd [1]: 59.8 nM
koff [1]: 0.0037 s⁻¹
kon [1]: 61900 M⁻¹ s⁻¹

B19: Hu2117HK-Mu34 (Fc fusion)
scFv: B6 scFv with Y59K, S226Q
notes: as for B6
Kd [1]: 12.6 nM
koff [1]: 0.00117 s⁻¹
kon [1]: 93500 M⁻¹ s⁻¹

B23: Hu2117HK-Mu22 (Fc fusion, name in Kabat numbering)
scFv: B6 scFv with Y59K, N165V
notes: as for B6
Kd [1]: 13.4 nM
koff [1]: 0.00059 s⁻¹
kon [1]: 43900 M⁻¹ s⁻¹

B24: Hu2117HK-Mu21 (Fc fusion, name in Kabat numbering)
scFv: B6 scFv with Y59K, N165T
notes: as for B6
Kd [1]: 12 nM
koff [1]: 0.00056 s⁻¹
kon [1]: 46800 M⁻¹ s⁻¹

B25: Hu2117HK-Mu19 (Fc fusion, name in Kabat numbering)
scFv: B6 scFv with Y59K, N165Q
notes: as for B6
Kd [1]: 13.9 nM
koff [1]: 0.000837 s⁻¹
kon [1]: 60100 M⁻¹ s⁻¹

B28: Hu2117HK-Mu17 (Fc fusion, name in Kabat numbering)
scFv: B6 scFv with Y59K, N165I
notes: as for B6
Kd [1]: 14.9 nM
koff [1]: 0.000738 s⁻¹
kon [1]: 49500 M⁻¹ s⁻¹

B33: 2126-Hu-L10 (antibody, IgG1, V domains shown)
VH: QVQLVQSGSELKKPGASVKVSCKASGYTFTDYSMHWVRQAPGQGLEWMGWINTETGEPTYADDFKGRFVFSLDTSVSTAYLQISSLKAEDTAVYFCVRVGRYDYAMDYWGQGTTVTVSS
VL: DIQMTQSPSSLSASVGDRVTITCKASQDVYTAVAWYQQKPGKAPKLLINSASNRYTGVPSRFSGSGSGTDFTLTISSLQPEDFATYYCQQHYSTPPTFGGGTKVEIK
notes: IgG1/Cκ
Kd [2]: 5.38 nM
koff [2]: 0.000558 s⁻¹
kon [2]: 104000 M⁻¹ s⁻¹

B34: 2126-Hu-L17 (antibody, IgG1, V domains shown)
VH: B33 VH
VL: B33 VL with N53Y, Y55Q
notes: IgG1/Cκ
Kd [2]: 7.91 nM
koff [2]: 0.000786 s⁻¹
kon [2]: 99300 M⁻¹ s⁻¹

B35: 2126-Hu-L18 (antibody, IgG1, V domains shown)
VH: B33 VH
VL: B33 VL with N53Y, H91S
notes: IgG1/Cκ
Kd [2]: 8.83 nM
koff [2]: 0.000912 s⁻¹
kon [2]: 103000 M⁻¹ s⁻¹

B36: 2126-Hu-L13 (antibody, IgG1, V domains shown)
VH: B33 VH
VL: B33 VL with N53T
notes: IgG1/Cκ
Kd [2]: 5.34 nM
koff [2]: 0.000531 s⁻¹
kon [2]: 99500 M⁻¹ s⁻¹

B37: 2126-Hu-L21 (antibody, IgG1, V domains shown)
VH: B33 VH
VL: B33 VL with N53Y, H91Y
notes: IgG1/Cκ
Kd [2]: 1.77 nM
koff [2]: 0.000193 s⁻¹
kon [2]: 109000 M⁻¹ s⁻¹

B38: 2126-Hu-L15 (antibody, IgG1, V domains shown)
VH: B33 VH
VL: B33 VL with N53Y, Y55E
notes: IgG1/Cκ
Kd [2]: 8.29 nM
koff [2]: 0.000906 s⁻¹
kon [2]: 109000 M⁻¹ s⁻¹

B39: 2126-Hu-L14 (antibody, IgG1, V domains shown)
VH: B33 VH
VL: B33 VL with N53Y, Y55A
notes: IgG1/Cκ
Kd [2]: 6.48 nM
koff [2]: 0.000666 s⁻¹
kon [2]: 103000 M⁻¹ s⁻¹

B40: 2126-Hu-L12 (antibody, IgG1, V domains shown)
VH: B33 VH
VL: B33 VL with N53S
notes: IgG1/Cκ
Kd [2]: 6.13 nM
koff [2]: 0.000619 s⁻¹
kon [2]: 101000 M⁻¹ s⁻¹

B41: 2126-Hu-L11 (antibody, IgG1, V domains shown)
VH: B33 VH
VL: B33 VL with N53Q
notes: IgG1/Cκ
Kd [2]: 6.25 nM
koff [2]: 0.000651 s⁻¹
kon [2]: 104000 M⁻¹ s⁻¹

B42: 2126-Hu-L16 (antibody, IgG1, V domains shown)
VH: B33 VH
VL: B33 VL with N53Y, Y55P
notes: IgG1/Cκ
Kd [2]: 4.38 nM
koff [2]: 0.000464 s⁻¹
kon [2]: 106000 M⁻¹ s⁻¹

B43: 2126-Hu-L19 (antibody, IgG1, V domains shown)
VH: B33 VH
VL: B33 VL with N53Y, H91A
notes: IgG1/Cκ
Kd [2]: 8.07 nM
koff [2]: 0.00085 s⁻¹
kon [2]: 105000 M⁻¹ s⁻¹

Next, values leading:

Kd [1]: 8.33 nM
koff [1]: 0.000718 s⁻¹
kon [1]: 86200 M⁻¹ s⁻¹
B1: Hu2117HK-Mu01 (Fc fusion)
scFv: B6 scFv with Y59K, A180S
notes: as for B6

Kd [1]: 11.4 nM
koff [1]: 0.000483 s⁻¹
kon [1]: 42600 M⁻¹ s⁻¹
B2: Hu2117HK-Mu18 (Fc fusion, name in Kabat numbering)
scFv: B6 scFv with Y59K, N165L
notes: as for B6

Kd [1]: 7.38 nM
koff [1]: 0.000592 s⁻¹
kon [1]: 80200 M⁻¹ s⁻¹
B3: Hu2117HK-Mu27 (Fc fusion)
scFv: B6 scFv with Y59K, G166R
notes: as for B6

Kd [1]: 8.76 nM
koff [1]: 0.00051 s⁻¹
kon [1]: 58200 M⁻¹ s⁻¹
B4: Hu2117HK-Mu16 (Fc fusion, name in Kabat numbering)
scFv: B6 scFv with Y59K, N165G
notes: as for B6

Kd [1]: 6.65 nM
koff [1]: 0.000495 s⁻¹
kon [1]: 74500 M⁻¹ s⁻¹
B5: Hu2117HK-Mu08 (Fc fusion)
scFv: B6 scFv with Y59K, P61A
notes: as for B6

Kd [1]: 9.41 nM
koff [1]: 0.000803 s⁻¹
kon [1]: 85400 M⁻¹ s⁻¹
B7: Hu2117HK-Mu11 (Fc fusion)
scFv: B6 scFv with Y59K, F192D
notes: as for B6

Kd [1]: 6.09 nM
koff [1]: 0.000366 s⁻¹
kon [1]: 60100 M⁻¹ s⁻¹
B8: Hu2117HK-Mu32 (Fc fusion)
scFv: B6 scFv with Y59K, H163S
notes: as for B6

Kd [1]: 7.15 nM
koff [1]: 0.000592 s⁻¹
kon [1]: 82800 M⁻¹ s⁻¹
B9: Hu2117HK-Mu28 (Fc fusion)
scFv: B6 scFv with Y59K, G166T
notes: as for B6

Kd [1]: 6.73 nM
koff [1]: 0.00056 s⁻¹
kon [1]: 83100 M⁻¹ s⁻¹
B10: Hu2117HK-Mu25 (Fc fusion)
scFv: B6 scFv with Y59K, G166S
notes: as for B6

Kd [1]: 9.88 nM
koff [1]: 0.000895 s⁻¹
kon [1]: 90600 M⁻¹ s⁻¹
B11: Hu2117HK-Mu04 (Fc fusion)
scFv: B6 scFv with Y59K, M136L
notes: as for B6

Kd [1]: 6.76 nM
koff [1]: 0.000529 s⁻¹
kon [1]: 78300 M⁻¹ s⁻¹
B13: Hu2117HK-Mu05 (Fc fusion)
scFv: B6 scFv with Y29F, Y59K
notes: as for B6

Kd [1]: 7.05 nM
koff [1]: 0.000546 s⁻¹
kon [1]: 77400 M⁻¹ s⁻¹
B14: Hu2117HK-Mu10 (Fc fusion)
scFv: B6 scFv with Y59K, P61V
notes: as for B6

Kd [1]: 6.05 nM
koff [1]: 0.000484 s⁻¹
kon [1]: 80100 M⁻¹ s⁻¹
B15: Hu2117HK-Mu13 (Fc fusion)
scFv: B6 scFv with Y59K, F224Y
notes: scFv-hIgG1 Fc; also called Hu2117HK-Mul3; not shown: human IgG1 Fc

Kd [1]: 6.65 nM
koff [1]: 0.000423 s⁻¹
kon [1]: 63700 M⁻¹ s⁻¹
B16: Hu2117HK-Mu24 (Fc fusion)
scFv: B6 scFv with Y59K, G166I
notes: as for B6

Kd [1]: 7.16 nM
koff [1]: 0.000624 s⁻¹
kon [1]: 87200 M⁻¹ s⁻¹
B20: Hu2117HK-Mu14 (Fc fusion)
scFv: B6 scFv with Y59K, D62G
notes: as for B6

Kd [1]: 8.27 nM
koff [1]: 0.000301 s⁻¹
kon [1]: 36400 M⁻¹ s⁻¹
B21: Hu2117HK-Mu30 (Fc fusion, not shown: a dimerising Fc or GST; small tags and cut ends)
scFv: B6 scFv with Y59K, H163D
notes: scFv-hIgG1 Fc

Kd [1]: 8.32 nM
koff [1]: 0.000737 s⁻¹
kon [1]: 88600 M⁻¹ s⁻¹
B22: Hu2117HK-Mu02 (Fc fusion)
scFv: B6 scFv with Y59K, T222V
notes: as for B6

Kd [1]: 7.62 nM
koff [1]: 0.000668 s⁻¹
kon [1]: 87700 M⁻¹ s⁻¹
B26: Hu2117HK-Mu29 (Fc fusion)
scFv: B6 scFv with Y59K, V162L
notes: as for B6

Kd [1]: 8.18 nM
kon [1]: 82600 M⁻¹ s⁻¹
B27: Hu2117HK-Mu06 (Fc fusion)
scFv: B6 scFv with A49S, Y59K
notes: as for B6

Kd [1]: 6.4 nM
koff [1]: 0.000453 s⁻¹
kon [1]: 70800 M⁻¹ s⁻¹
B29: Hu2117HK-Mu12 (Fc fusion)
scFv: B6 scFv with Y59K, F192P
notes: as for B6

Kd [1]: 6.67 nM
koff [1]: 0.000542 s⁻¹
kon [1]: 81200 M⁻¹ s⁻¹
B30: Hu2117HK-Mu23 (Fc fusion)
scFv: B6 scFv with Y59K, G166A
notes: as for B6

Kd [1]: 8.69 nM
koff [1]: 0.00071 s⁻¹
kon [1]: 81600 M⁻¹ s⁻¹
B31: Hu2117HK-Mu03 (Fc fusion)
scFv: B6 scFv with Y59K, I134V
notes: as for B6

Kd [1]: 6.38 nM
koff [1]: 0.000468 s⁻¹
kon [1]: 73400 M⁻¹ s⁻¹
B32: Hu2117HK-Mu09 (Fc fusion)
scFv: B6 scFv with Y59K, P61G
notes: as for B6
